Source: patent US20180009897A1 (IGM BIOSCIENCES, published 2018)

Key:
Assay in all cases: specificity ELISA as in Example 2, receptor coated
[1] = target: T1, Soluble DcR2 protein (R&D Systems Catalog #633-TR-100) (UniProt Q9UBN6 56-211, limits assumed)
T1 construct: also called decoy receptor DcR2; TRAILR4
T1 sequence (looked up): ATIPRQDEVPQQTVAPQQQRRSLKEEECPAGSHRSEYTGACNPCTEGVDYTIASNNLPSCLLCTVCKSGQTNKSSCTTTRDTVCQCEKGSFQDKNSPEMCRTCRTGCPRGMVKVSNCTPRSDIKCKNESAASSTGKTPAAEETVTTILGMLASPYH
Experimental: (§1) Soluble DR5, DR4, DcR1, or DcR2 protein (R&D Systems Catalog #631-T2-100/CF, 347-DR-100/CF, 630-TR-100/CF, 633-TR-100 respectively) were coated on an ELISA plate at 2 μg/mL in 100 mM NaHCO₃ pH 9.5 overnight at 4° C. A solution of 2% BSA in PBS was used for the blocking and antibody incubation steps. The plate was blocked for 1 hour at room temperature, then incubated with mouse anti-human DR5 mAb (Acris Antibodies Catalog #AM31206AF-N) for 1 hour at room temperature. anti-DR5 mAb was 3-fold serially diluted to concentrations ranging from 1 to 200 μg/mL. After washing 3 times with PBS plus 0.05% Tween-20, the plate was incubated with rat anti-mouse kappa-HRP (Southern Biotech Catalog #1180-05) for 1 hour at room temperature, protected from light. After washing 3 times with PBS plus 0.05% Tween-20, the plate was incubated with TMB substrate (BD Biosciences Catalog #555214) for 20 minutes at room temperature. The reaction was stopped with 1M H₂SO₄ and absorbance at 450 nm was determined using a microtiter plate reader.
(§2) For Human Anti-DR5 mAb ELISAs, 1:2000 Mouse Anti-Human Lambda-HRP (Southern Biotech Catalog #9180-05) or 1:6000 Mouse Anti-Human Kappa-HRP (Southern Biotech Catalog #9230-05) was used for detection.
(§3) An IgG version and pentameric IgM-J chain version of anti-DR5 mAb #2 were tested for binding specificity by ELISA as described in Example 2. As shown in FIG. 8A (IgG) and FIG. 8B (IgM), the antibodies bound to human DR5 but not human DR4 or either of the decoy receptors DcR1 or DcR2.

[2] = target: T2, Soluble DcR1 protein (R&D Systems Catalog #630-TR-100/CF) (UniProt O14798 26-221, limits assumed)
T2 construct: also called decoy receptor DcR1; TRAILR3
T2 sequence (looked up): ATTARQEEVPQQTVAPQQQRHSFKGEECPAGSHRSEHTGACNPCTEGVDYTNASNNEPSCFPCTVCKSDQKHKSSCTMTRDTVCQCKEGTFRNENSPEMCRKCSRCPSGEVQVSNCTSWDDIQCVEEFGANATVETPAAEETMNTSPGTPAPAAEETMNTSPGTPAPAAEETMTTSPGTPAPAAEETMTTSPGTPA
Experimental: as §1, §2, §3

[3] = target: T3, Soluble DR4 protein (R&D Systems Catalog #347-DR-100/CF) (human, UniProt O00220 24-239, limits assumed)
T3 construct: also called human DR4; TRAILR1
T3 sequence (looked up): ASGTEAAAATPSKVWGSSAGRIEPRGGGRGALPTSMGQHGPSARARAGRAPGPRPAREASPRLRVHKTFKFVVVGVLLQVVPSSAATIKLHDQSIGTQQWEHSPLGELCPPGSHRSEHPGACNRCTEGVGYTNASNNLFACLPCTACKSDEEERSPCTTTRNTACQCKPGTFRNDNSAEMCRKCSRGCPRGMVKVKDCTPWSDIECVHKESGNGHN
Experimental: as §1, §2, §3

Measured: binding result

B1: Anti-DR5 mAb #2, pentameric IgM-J chain version (antibody, V domains shown)
VH: QVQLQESGPGLVKPSQTLSLTCTVSGGSISSGDYFWSWIRQLPGKGLECIGHIHNSGTTYYNPSLKSRVTISVDTSKKQFSLRLSSVTAADTAVYYCARDRGGDYYYGMDVWGQGTTVTVSS
VL: EIVLTQSPGTLSLSPGERATLSCRASQGISRSYLAWYQQKPGQAPSLLIYGASSRATGIPDRFSGSGSGTDFTLTISRLEPEDFAVYYCQQFGSSPWTFGQGTKVEIK
modifications: Assembled as a pentamer of bivalent IgM binding units with one J chain (10 VH/VL pairs); the letters do not carry this.
notes: VH and VL were inserted into proprietary IgM vectors; also called DR5 MAb IgM #2; IgM Anti-DR5 mAb #2; not shown: IgM heavy-chain constant region, kappa light-chain constant region and J chain of the construct
no binding: all assays above
